From paper PMC4370617, “Development of a Molecularly Evolved, Highly Sensitive CaMKII FRET Sensor with Improved Expression Pattern” (PLoS ONE, 2015) come the findings set out here.

This series concerns the molecule itself. Nature of the series: native gel or EMSA; His-tagged association domains purified from HeLa cells, incubated in 25 mM HEPES pH 7.3, 50 mM KCl, 1 mM DTT for 1 hour at 37°C; native-PAGE, silver staining. On the technique in general: A gel shift assay detects complexes by their altered migration in electrophoresis.

B1: His-tagged association domain of CaMKIIα, wild type (domain or fragment, rat, UniProt P11275 345-478, looked up)
chain: VRKQEIIKVTEQLIEAISNGDFESYTKMCDPGMTAFEPEALGNLVEGLDFHRFYFENLWSRNSKPVHTTILNPHIHLMGDESACIAYIRITQYLDAGGIPRTAQSEETRVWHRRDGKWQIVHFHRSGAPSVLPH
notes: association domain of CaMKIIα, rat, 345-end; Printed molecular weight of the His-tagged domain: 19,800; The limits 345-end are stated for the library fragment; they are not restated for the HeLa expression construct; also called AD WT; source: HeLa, transfected, purified (Ni-Sepharose)
For the protein B1, the binding result is reported as “binds”.
